Results on seven molecules are retold here after publication PMC4041364.

For data set [1], the target named is T1, Granzyme A (GzmA) (human, UniProt P12544 29-262).
T1 sequence: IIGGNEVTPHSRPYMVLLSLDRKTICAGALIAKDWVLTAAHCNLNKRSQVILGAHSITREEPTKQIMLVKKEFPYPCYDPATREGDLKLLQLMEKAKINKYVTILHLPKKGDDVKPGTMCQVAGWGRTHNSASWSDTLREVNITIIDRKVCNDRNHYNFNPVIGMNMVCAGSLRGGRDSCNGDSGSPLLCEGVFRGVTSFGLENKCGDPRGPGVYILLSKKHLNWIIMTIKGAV
The data set can be described thus: fluorescence polarization. A general note: Fluorescence polarisation rises when a labelled molecule tumbles more slowly, as on binding a larger partner.

In another data set the target is HuR (human antigen R) (UniProt Q15717 1-326). Briefly: fluorescence polarization.
Data set [2] concerns the target T2, Granzyme B (GzmB) (human, UniProt P10144 21-247). Briefly: fluorescence polarization.
In data set [3] the target is T3, Neutrophil elastase (NE) (human, UniProt P08246 30-267). The data set can be described thus: fluorescence polarization.
For data set [4], the target named is T4, Cathepsin G (CATG) (human, UniProt P08311 21-244).
T4 sequence: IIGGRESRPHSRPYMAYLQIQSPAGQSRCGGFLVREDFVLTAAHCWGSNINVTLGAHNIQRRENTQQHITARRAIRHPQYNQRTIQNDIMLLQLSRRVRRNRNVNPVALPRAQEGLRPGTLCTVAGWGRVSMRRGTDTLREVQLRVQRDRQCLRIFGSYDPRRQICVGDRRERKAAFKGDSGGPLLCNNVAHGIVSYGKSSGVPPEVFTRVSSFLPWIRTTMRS
Briefly: fluorescence polarization.

The target in data set [5] is T1, Granzyme A (GzmA). Briefly: pull-down.
Another data set deals with Pancreatic elastase (PE) (porcine, UniProt P00772 27-266). Briefly: pull-down.
Data set [6] addresses T2, Granzyme B (GzmB). The data set can be described thus: pull-down.
The target of data set [7] is T3, Neutrophil elastase (NE). The data set can be described thus: pull-down.
The target in data set [8] is T4, Cathepsin G (CATG). The data set can be described thus: pull-down.
The target in another data set is Histone H1 (UniProt P07305 1-194). The data set can be described thus: fluorescence polarization.
Histone H1, sequence (P07305 whole entry): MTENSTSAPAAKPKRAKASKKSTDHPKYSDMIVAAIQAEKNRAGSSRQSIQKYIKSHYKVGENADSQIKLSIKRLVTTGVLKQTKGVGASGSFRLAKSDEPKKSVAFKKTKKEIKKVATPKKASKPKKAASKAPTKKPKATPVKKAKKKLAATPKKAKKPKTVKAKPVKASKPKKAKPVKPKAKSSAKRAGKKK

T2 sequence (P10144 21-247): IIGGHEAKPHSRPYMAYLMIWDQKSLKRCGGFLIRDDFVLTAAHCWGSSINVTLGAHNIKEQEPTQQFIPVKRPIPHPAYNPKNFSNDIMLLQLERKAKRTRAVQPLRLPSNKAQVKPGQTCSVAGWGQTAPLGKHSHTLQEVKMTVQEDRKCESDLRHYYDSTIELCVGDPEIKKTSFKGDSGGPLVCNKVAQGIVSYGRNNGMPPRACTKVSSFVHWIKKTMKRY
HuR (human antigen R), sequence (Q15717 whole entry): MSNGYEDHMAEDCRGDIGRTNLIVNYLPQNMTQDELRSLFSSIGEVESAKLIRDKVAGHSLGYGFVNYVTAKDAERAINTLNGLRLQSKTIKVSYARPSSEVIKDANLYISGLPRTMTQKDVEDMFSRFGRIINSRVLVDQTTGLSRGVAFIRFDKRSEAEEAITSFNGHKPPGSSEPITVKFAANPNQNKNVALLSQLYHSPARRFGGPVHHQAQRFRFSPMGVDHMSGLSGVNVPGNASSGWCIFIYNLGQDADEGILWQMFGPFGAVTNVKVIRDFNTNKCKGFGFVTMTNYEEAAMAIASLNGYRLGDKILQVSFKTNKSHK
T3 sequence (P08246 30-267): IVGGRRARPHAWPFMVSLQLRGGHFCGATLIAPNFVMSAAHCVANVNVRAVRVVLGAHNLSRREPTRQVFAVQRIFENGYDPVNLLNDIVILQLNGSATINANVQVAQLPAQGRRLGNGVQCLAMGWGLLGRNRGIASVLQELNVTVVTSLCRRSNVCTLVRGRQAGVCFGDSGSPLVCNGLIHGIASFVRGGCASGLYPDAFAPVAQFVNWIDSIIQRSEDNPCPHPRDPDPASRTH
Pancreatic elastase (PE), sequence (P00772 27-266): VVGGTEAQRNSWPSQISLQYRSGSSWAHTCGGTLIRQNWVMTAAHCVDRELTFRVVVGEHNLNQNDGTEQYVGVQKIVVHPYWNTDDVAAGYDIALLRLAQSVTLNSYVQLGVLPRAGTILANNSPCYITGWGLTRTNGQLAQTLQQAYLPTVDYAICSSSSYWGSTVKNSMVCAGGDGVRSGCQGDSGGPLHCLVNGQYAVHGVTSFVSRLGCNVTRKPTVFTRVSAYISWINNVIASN

B1: BB94 RNA (ssRNA)
RNA: UCUGUGAGUUGAACGCACACAUCACAAAGGA
Regarding B1, the Kd with Granzyme A (GzmA) [1] came out at 1600 nM; in the data set with HuR (human antigen R) it was 4800 nM; with Granzyme B (GzmB) [2], 480 nM.

B2: AU RNA (ssRNA)
RNA: CCCAAGCUUAUUUAUUUAUUUAUUGCAGGUC
As for B2, the Kd with Granzyme A (GzmA) [1] stood at 401 nM; in the data set with HuR (human antigen R) it was 492 nM; in the data set with Granzyme B (GzmB) [2], 651 nM; with Neutrophil elastase (NE) [3], 602 nM; in the data set with Cathepsin G (CATG) [4] it was 165 nM.

B3: dT(30) (ssDNA)
DNA: TTTTTTTTTTTTTTTTTTTTTTTTTTTTTT
Take B3: the dissociation constant (Kd) with Granzyme A (GzmA) [1] worked out at 48 nM; with Granzyme B (GzmB) [2], 45 nM.

B4: Oligo(dT)25 beads (ssDNA)
DNA: TTTTTTTTTTTTTTTTTTTTTTTTT
As to B4, the binding result with Granzyme A (GzmA) [5] is reported as “binds”; with Pancreatic elastase (PE), “no binding”; with Granzyme B (GzmB) [6], “binds”; with Neutrophil elastase (NE) [7], “binds”; with Cathepsin G (CATG) [8], “binds”.

B5: BB94 ssDNA (ssDNA)
DNA: TCTGTGAGTTGAACGCACACATCACAAAGGAG
Consider B5, for which the Kd in the data set with Histone H1 was determined as 10 nM; in the data set with Granzyme A (GzmA) [1], 122 nM; with Granzyme B (GzmB) [2], 35 nM; in the data set with Neutrophil elastase (NE) [3], 272 nM; in the data set with Cathepsin G (CATG) [4], 22 nM.

B6: BB94 dsDNA (dsDNA)
DNA 1: B5 DNA
DNA 2: CTCCTTTGTGATGTGTGCGTTCAACTCACAGA
As to B6, the Kd with Histone H1 came out at 9 nM; with Granzyme A (GzmA) [1], 120 nM; with Granzyme B (GzmB) [2], 161 nM; with Neutrophil elastase (NE) [3], 607 nM; with Cathepsin G (CATG) [4], 35 nM.

B7: rU(30) (ssRNA)
RNA: UUUUUUUUUUUUUUUUUUUUUUUUUUUUUU
Consider B7, for which the figures for the Kd in the data set with Granzyme A (GzmA) [1], with HuR (human antigen R) and with Granzyme B (GzmB) [2] were 232 nM, 121 nM and 159 nM, respectively.

As usually defined, the Kd is the concentration at which binding is half-saturated. A higher Kd goes with a looser complex.
